Our source for the PEPC efficiency (cross-linking efficiency) values is PMC4168779.

This assay deals with Z protein fused to maltose binding protein, MBP-Z(N6C). Put plainly: cross-linking.
Take “ZSPA affibody (Afb) with IetY at site 36 (designed binder)”: the PEPC efficiency (cross-linking efficiency) was 66%.

With “ZSPA affibody (Afb) with BrC6K at site 36, Afb(D36BrC6K) (designed binder)”, the PEPC efficiency (cross-linking efficiency) worked out at 73%.

Regarding “ZSPA affibody (Afb) with BetY at site 36 (designed binder)”, the PEPC efficiency (cross-linking efficiency) is 57%.
